Test results taken from patent publication US20070161569A1 (GENERAL HOSPITAL, published 2007).
“And” between values parts separate entries of the source, which are not always exact repeats. Identical values can stand only once. Non-standard residues stand in square brackets, D forms with d. No end group written: not given here. hArg = N=C(N)NCCCC[C@H](N)C(=O)O; Ac5c = NC1(C(=O)O)CCCC1; Deg = CCC(N)(CC)C(=O)O; Ac3c = NC1(C(=O)O)CC1; Aib = CC(C)(N)C(=O)O

How the values were obtained:
[1] = molecular target: T1, recombinant P1R chimera expressed in HKRK-B28 cells (opossum P1R from the N-terminus to the mid region of … (opossum; rat, UniProt P25107 27-288; P25961 295-591, limits assumed); assay: cell-based or functional assay
T1 sequence (P25107 other isoform, or with tags, fused parts or gaps limits assumed): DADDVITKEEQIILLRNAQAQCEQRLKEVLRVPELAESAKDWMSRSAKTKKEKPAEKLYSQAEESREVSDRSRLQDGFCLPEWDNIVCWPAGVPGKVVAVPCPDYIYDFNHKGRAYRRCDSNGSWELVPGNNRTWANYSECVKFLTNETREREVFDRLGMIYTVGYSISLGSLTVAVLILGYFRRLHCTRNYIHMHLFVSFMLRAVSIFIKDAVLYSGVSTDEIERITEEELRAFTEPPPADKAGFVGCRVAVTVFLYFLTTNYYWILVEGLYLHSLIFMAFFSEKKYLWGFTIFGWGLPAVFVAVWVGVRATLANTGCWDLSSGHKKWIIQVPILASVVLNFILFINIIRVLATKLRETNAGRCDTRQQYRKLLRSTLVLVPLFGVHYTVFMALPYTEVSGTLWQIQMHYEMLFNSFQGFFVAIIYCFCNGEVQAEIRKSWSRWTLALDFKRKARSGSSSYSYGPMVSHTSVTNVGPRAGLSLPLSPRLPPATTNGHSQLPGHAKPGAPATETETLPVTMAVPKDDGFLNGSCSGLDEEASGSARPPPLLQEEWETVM

[2] = molecular target: T1, recombinant P1R chimera expressed in …; assay: competition binding on B28 cells against 125I-PTH(1-21) tracer (SEQ ID NO 36)
Experimental: (§1) Competition Binding. Binding reactions were performed with HKRK-B28 cells or in COS-7 cells in 24-well plates. The cells were rinsed with 0.5 mL of binding buffer, and then treated successively with 100 μL binding buffer, 100 μL of binding buffer containing various amounts of unlabeled competitor ligand, and 100 μL of binding buffer containing ca. 100,000 cpm of ¹²⁵I-[Aib^{1,3},Nle⁸,Gln¹⁰,Har¹¹,Ala¹²,Trp¹⁴,Arg¹⁹,Tyr²¹]rPTH(1-21) (SEQ. ID. NO. 36) (ca. 26 fmol; final volume=300 μL). Incubations were 4 to 6 h at 4° C., at which time near equilibrium conditions were attained. Cells were then placed on ice, the binding medium was removed, and the monolayer was rinsed three times with 0.5 mL of cold binding buffer. The cells were subsequently lysed with 0.5 mL 5N NaOH and counted for radioactivity. For each tracer and in each experiment, the non-specific binding was determined as the radioactivity that bound in the presence of the same unlabeled peptide at a concentration of 1 μM, and was ˜1% of total radioactivity added for each tracer. The maximum specific binding (B₀) was the total radioactivity bound in the absence of competing ligand, corrected for nonspecific binding, and for each tracer, ranged from 8% to 20% of the total radioactivity added. Nonlinear regression was used to calculate binding IC₅₀ values (see below). Scatchard transformations of homologous competition binding data derived from studies with 26 fmol of ¹²⁵I-[Aib^{1,3},Nle⁸,Gln¹⁰,Har¹¹,Ala¹²,Trp¹⁴, Arg¹⁹,Tyr²¹]rPTH(1-21) (SEQ. ID. NO. 36) were employed for estimations of apparent equilibrium dissociation constant (kDapps) and total number of ligand binding sites (Bₘₐₓ), assuming a single class of binding sites and equal affinities of the iodinated and non iodinated ligand.

[3] = molecular target: T2, P1R-delNt, a recombinant human PTH-1 receptor construct in which most of the amino-terminal extracellular … (human, UniProt Q03431 23-593, limits assumed); assay: cell-based or functional assay
T2 sequence (looked up): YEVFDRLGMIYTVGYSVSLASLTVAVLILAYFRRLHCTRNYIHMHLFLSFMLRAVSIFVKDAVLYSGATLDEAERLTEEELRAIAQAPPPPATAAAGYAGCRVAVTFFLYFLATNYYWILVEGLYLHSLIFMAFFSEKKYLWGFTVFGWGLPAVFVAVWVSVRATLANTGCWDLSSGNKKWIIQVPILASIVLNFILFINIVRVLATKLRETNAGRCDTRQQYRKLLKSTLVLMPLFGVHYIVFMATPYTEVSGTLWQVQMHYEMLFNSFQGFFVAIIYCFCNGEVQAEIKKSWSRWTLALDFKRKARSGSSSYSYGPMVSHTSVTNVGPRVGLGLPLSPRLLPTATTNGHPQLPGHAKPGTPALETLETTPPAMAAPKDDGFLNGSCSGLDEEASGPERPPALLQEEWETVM

[4] = molecular target: T1, recombinant P1R chimera expressed in …; assay: competition binding on HKRK-B28 cells against 125I-PTH(1-21) tracer (SEQ ID NO 36)
Experimental: as §1, with “Incubations” for “Competition Binding. Binding reactions were performed with HKRK-B28 cells or in COS-7 cells in 24-well plates. The cells were rinsed with 0.5 mL of binding buffer, and then treated successively with 100 μL binding buffer, 100 μL of binding buffer containing various amounts of unlabeled competitor ligand, and 100 μL of binding buffer containing ca. 100,000 cpm of ¹²⁵I-[Aib^{1,3},Nle⁸,Gln¹⁰,Har¹¹,Ala¹²,Trp¹⁴,Arg¹⁹,Tyr²¹]rPTH(1-21) (SEQ. ID. NO. 36) (ca. 26 fmol; final volume=300 μL). Incubations”, “ligand. […]” for “ligand.”

B1: [M]PTH(1-14) analog in which alanine-3 is substituted with α,α-diethylglycine (Deg) (peptide)
peptide: H-AV[Deg]EIQLMHQ[hArg]AKW-NH2
SMILES: CC[C@H](C)[C@H](NC(=O)[C@H](CCC(=O)O)NC(=O)C(CC)(CC)NC(=O)[C@@H](NC(=O)[C@H](C)N)C(C)C)C(=O)N[C@@H](CCC(N)=O)C(=O)N[C@@H](CC(C)C)C(=O)N[C@@H](CCSC)C(=O)N[C@@H](Cc1c[nH]cn1)C(=O)N[C@@H](CCC(N)=O)C(=O)N[C@@H](CCCCNC(=N)N)C(=O)N[C@@H](C)C(=O)N[C@@H](CCCCN)C(=O)N[C@@H](Cc1c[nH]c2ccccc12)C(N)=O
notes: also called Deg^3-containing analog; Deg-3
cAMP-stimulating potency, fold diminished against the parent analog [1]: ~10 fold | signaling potency, fold diminished relative to parent [M]PTH(1-14) [1]: ~40 fold | IC50 [2]: ~3000 nM | fold improved affinity relative to the parent [M]PTH(1-14) [2]: ~1.5 fold

B2: [M]PTH(1-14) analog in which alanine-3 is substituted with 1-aminocyclopentane-1-carboxylic acid (Ac5c) (peptide)
peptide: AV[Ac5c]EIQLMHQ[hArg]AKW-NH2
modifications: N-terminus assumed
SMILES: CC[C@H](C)[C@H](NC(=O)[C@H](CCC(=O)O)NC(=O)C1(NC(=O)[C@@H](NC(=O)[C@H](C)N)C(C)C)CCCC1)C(=O)N[C@@H](CCC(N)=O)C(=O)N[C@@H](CC(C)C)C(=O)N[C@@H](CCSC)C(=O)N[C@@H](Cc1c[nH]cn1)C(=O)N[C@@H](CCC(N)=O)C(=O)N[C@@H](CCCCNC(=N)N)C(=O)N[C@@H](C)C(=O)N[C@@H](CCCCN)C(=O)N[C@@H](Cc1c[nH]c2ccccc12)C(N)=O
notes: also called Ac5c^3-containing analog; Ac5c-3
cAMP-stimulating potency, fold increase over the parent analog [1]: < 2 fold | IC50 [2]: ~3000 nM

B3: [Ac3c^1,M]PTH(1-14) (peptide)
peptide: [Ac3c]VAEIQLMHQ[hArg]AKW-NH2
modifications: N-terminus assumed
SMILES: CC[C@H](C)[C@H](NC(=O)[C@H](CCC(=O)O)NC(=O)[C@H](C)NC(=O)[C@@H](NC(=O)C1(N)CC1)C(C)C)C(=O)N[C@@H](CCC(N)=O)C(=O)N[C@@H](CC(C)C)C(=O)N[C@@H](CCSC)C(=O)N[C@@H](Cc1c[nH]cn1)C(=O)N[C@@H](CCC(N)=O)C(=O)N[C@@H](CCCCNC(=N)N)C(=O)N[C@@H](C)C(=O)N[C@@H](CCCCN)C(=O)N[C@@H](Cc1c[nH]c2ccccc12)C(N)=O
cAMP accumulation, fold more potent than the parent analog [1]: ~2 fold

B4: [Ac5c^1,Aib^3,Gln^10]PTH(1-10)NH2 (peptide)
peptide: [Ac5c]V[Aib]EIQLMHQ-NH2
modifications: N-terminus assumed
SMILES: CC[C@H](C)[C@H](NC(=O)[C@H](CCC(=O)O)NC(=O)C(C)(C)NC(=O)[C@@H](NC(=O)C1(N)CCCC1)C(C)C)C(=O)N[C@@H](CCC(N)=O)C(=O)N[C@@H](CC(C)C)C(=O)N[C@@H](CCSC)C(=O)N[C@@H](Cc1c[nH]cn1)C(=O)N[C@@H](CCC(N)=O)C(N)=O
cAMP EC50 in LdelNt-2 cells [3]: ~40000 nM and 37000 nM | cAMP EC50 in HKRK-B28 cells [1]: ~3000 nM | increase in cAMP levels relative to basal, peptide at 10 µM, HKRK-B28 cells [1]: 33 fold

B5: [Deg^1,M]PTH(1-14) (peptide)
peptide: [Deg]VAEIQLMHQ[hArg]AKW-NH2
modifications: N-terminus assumed
SMILES: CC[C@H](C)[C@H](NC(=O)[C@H](CCC(=O)O)NC(=O)[C@H](C)NC(=O)[C@@H](NC(=O)C(N)(CC)CC)C(C)C)C(=O)N[C@@H](CCC(N)=O)C(=O)N[C@@H](CC(C)C)C(=O)N[C@@H](CCSC)C(=O)N[C@@H](Cc1c[nH]cn1)C(=O)N[C@@H](CCC(N)=O)C(=O)N[C@@H](CCCCNC(=N)N)C(=O)N[C@@H](C)C(=O)N[C@@H](CCCCN)C(=O)N[C@@H](Cc1c[nH]c2ccccc12)C(N)=O
cAMP accumulation, fold more potent than the parent analog [1]: 11 fold

B6: [Ala^1,3,12,Gln^10,Har^11,Trp^14]PTH(1-14)NH2 (peptide)
peptide: AVAEIQLMHQ[hArg]AKW-NH2
modifications: N-terminus assumed
SMILES: CC[C@H](C)[C@H](NC(=O)[C@H](CCC(=O)O)NC(=O)[C@H](C)NC(=O)[C@@H](NC(=O)[C@H](C)N)C(C)C)C(=O)N[C@@H](CCC(N)=O)C(=O)N[C@@H](CC(C)C)C(=O)N[C@@H](CCSC)C(=O)N[C@@H](Cc1c[nH]cn1)C(=O)N[C@@H](CCC(N)=O)C(=O)N[C@@H](CCCCNC(=N)N)C(=O)N[C@@H](C)C(=O)N[C@@H](CCCCN)C(=O)N[C@@H](Cc1c[nH]c2ccccc12)C(N)=O
notes: also called [M]PTH(1-14); parent
IC50 [4]: 27000 nM | cAMP accumulation potency (EC50) in HKRK-B28 cells [1]: 220 nM | cAMP potency (EC50) [1]: 200 nM | IC50 [2]: ~3000 nM

B7: [Ac5c^1,M]PTH(1-14) (peptide)
peptide: [Ac5c]VAEIQLMHQ[hArg]AKW-NH2
modifications: N-terminus assumed
SMILES: CC[C@H](C)[C@H](NC(=O)[C@H](CCC(=O)O)NC(=O)[C@H](C)NC(=O)[C@@H](NC(=O)C1(N)CCCC1)C(C)C)C(=O)N[C@@H](CCC(N)=O)C(=O)N[C@@H](CC(C)C)C(=O)N[C@@H](CCSC)C(=O)N[C@@H](Cc1c[nH]cn1)C(=O)N[C@@H](CCC(N)=O)C(=O)N[C@@H](CCCCNC(=N)N)C(=O)N[C@@H](C)C(=O)N[C@@H](CCCCN)C(=O)N[C@@H](Cc1c[nH]c2ccccc12)C(N)=O
notes: also called Ac5c (position 1) analog; Ac5c^1 modification
cAMP accumulation, fold more potent than the parent analog [1]: 61 fold | cAMP potency, fold improvement relative to parent [M]PTH(1-14) [1]: ~35 fold | fold improved affinity relative to the parent [M]PTH(1-14) [2]: 50 fold

B8: [Ac5c^1,Aib^3]PTH(1-9)NH2 (peptide)
peptide: [Ac5c]V[Aib]EIQLMH-NH2
modifications: N-terminus assumed
SMILES: CC[C@H](C)[C@H](NC(=O)[C@H](CCC(=O)O)NC(=O)C(C)(C)NC(=O)[C@@H](NC(=O)C1(N)CCCC1)C(C)C)C(=O)N[C@@H](CCC(N)=O)C(=O)N[C@@H](CC(C)C)C(=O)N[C@@H](CCSC)C(=O)N[C@@H](Cc1c[nH]cn1)C(N)=O
increase in cAMP levels relative to basal, peptide at 1×10^-4M [1]: 6 fold

B9: [Aib^1,3,Gln^10]PTH(1-10)NH2 (peptide)
peptide: [Aib]V[Aib]EIQLMHQ-NH2
modifications: N-terminus assumed
SMILES: CC[C@H](C)[C@H](NC(=O)[C@H](CCC(=O)O)NC(=O)C(C)(C)NC(=O)[C@@H](NC(=O)C(C)(C)N)C(C)C)C(=O)N[C@@H](CCC(N)=O)C(=O)N[C@@H](CC(C)C)C(=O)N[C@@H](CCSC)C(=O)N[C@@H](Cc1c[nH]cn1)C(=O)N[C@@H](CCC(N)=O)C(N)=O
increase in cAMP accumulation, peptide at 1×10^-4M [1]: 2 fold

B10: [Aib^1,3,Gln^10,Har^11,Ala^12,Trp^14]PTH(1-14)NH2 (peptide)
peptide: [Aib]V[Aib]EIQLMHQ[hArg]AKW-NH2
modifications: N-terminus assumed
SMILES: CC[C@H](C)[C@H](NC(=O)[C@H](CCC(=O)O)NC(=O)C(C)(C)NC(=O)[C@@H](NC(=O)C(C)(C)N)C(C)C)C(=O)N[C@@H](CCC(N)=O)C(=O)N[C@@H](CC(C)C)C(=O)N[C@@H](CCSC)C(=O)N[C@@H](Cc1c[nH]cn1)C(=O)N[C@@H](CCC(N)=O)C(=O)N[C@@H](CCCCNC(=N)N)C(=O)N[C@@H](C)C(=O)N[C@@H](CCCCN)C(=O)N[C@@H](Cc1c[nH]c2ccccc12)C(N)=O
cAMP EC50 in LdelNt-2 cells [3]: 6.4 nM
